We go through one substance from article PMC3038193.

The target in the test is ApoE2 (C112S, C158S, A102C), labeled with Alexa488 or Alexa546 at position 102. Description: FRET or BRET.

The substance “ApoE2 (C112S, C158S, A102C), labeled with Alexa488 or Alexa546 at position 102 (natural protein)” had a k−1 (dissociation, dimer to monomers) of 0.00066 s⁻¹ and a k−2 (dissociation, tetramer to dimers) of 0.0036 s⁻¹.
